Measurements reported in patent publication US20240148883A1, “Branched Linkers for Antibody-Drug Conjugates and Methods of Use Thereof” (priority 2021, published 2024).
Where two headings read alike, the source gives them in different places.

Legend:
[1] = Aggregation of conjugates by analytical size exclusion chromatography (SEC): % monomeric / % HMW; format: physicochemical
Method: (§1) Methods: Antibodies (15 mg/mL) bearing one or two aldehyde tags (single or double-tagged constructs) were conjugated to linker-payloads at 1.1 or 1.7 mM, respectively. Reactions proceeded for 72 h at 37° C. in 20 mM sodium citrate, 50 mM NaCl pH 5.5 (20/50 buffer) containing 0.85-2.5% DMA. […] After conjugation, free drug was removed using a 30 kD MWCO 0.5 mL Amicon spin concentrator. Samples were added to the spin concentrator, centrifuged at 15,000×g for 7 min, then diluted with 450 μL 20 mM sodium citrate, 50 mM NaCl pH 5.5 and centrifuged again. The process was repeated 10 times. To determine the DAR of the final product, ADCs were examined by analytical chromatography using HIC (Tosoh #14947) or PLRP-RP (Agilent PL1912-1802 1000 A, 8 um, 50×2.1 mm) columns. HIC analysis used mobile phase A: 1.5 M ammonium sulfate, 25 mM sodium phosphate pH 7.0, and mobile phase B: 25% isopropanol, 18.75 mM sodium phosphate pH 7.0. PLRP analysis used mobile phase A: 0.1% trifluoroacetic acid in water, and mobile phase B: 0.1% trifluoroacetic acid in acetonitrile. Prior to PLRP analysis, sample was denatured with the addition of 50 mM DTT, 4 M guanidine HCl (final concentrations) and heating at 37° C. for 30 min. To determine aggregation, samples were analyzed using analytical size exclusion chromatography (SEC; Tosoh #08541) with a mobile phase of 300 mM NaCl, 25 mM sodium phosphate pH 6.8 with 5% isopropanol.

[2] = format: physicochemical
Method: as §1

[3] = conjugated to antibody against Target 1
[4] = conjugated to antibody against Target 2
[5] = conjugated to antibody against Target 3
[6] = conjugated to antibody against Target 4
[7] = conjugated to antibody against Target 5
[8] = conjugated to antibody against Target 7
[9] = conjugated to antibody against Target 8
[10] = conjugated to antibody against Target 9
[11] = conjugated to antibody against Target 10

Structure (SMILES) | % HMW (high-molecular weight species) [1, 3] [%] | % HMW (high-molecular weight species) [1, 4] [%] | % HMW (high-molecular weight species) [1, 5] [%] | % HMW (high-molecular weight species) [1, 6] [%] | % HMW (high-molecular weight species) [1, 7] [%] | % HMW (high-molecular weight species) ([1]; conjugated to antibody against Target 6) [%] | % HMW (high-molecular weight species) [1, 8] [%] | % HMW (high-molecular weight species) [1, 9] [%] | % HMW (high-molecular weight species) [1, 10] [%] | % HMW (high-molecular weight species) [1, 11] [%] | DAR [2, 3] | DAR [2, 4] | DAR [2, 5] | DAR [2, 6] | DAR [2, 7] | DAR [2, 8] | DAR [2, 9] | DAR [2, 10] | DAR [2, 11]
CC[C@@]1(O)C(=O)OCc2c1cc1n(c2=O)Cc2c-1nc1ccccc1c2CCN(C(=O)OCc1ccc(NC(=O)[C@H](C)NC(=O)[C@@H](NC(=O)CCC(=O)Nc2ccc3c(c2)cc(CN(C)NC)n3CCC(=O)N[C@H](C(=O)N[C@@H](C)C(=O)Nc2ccc(COC(=O)N(CCc3c4c(nc5ccccc35)-c3cc5c(c(=O)n3C4)COC(=O)[C@]5(O)CC)C(C)C)cc2O[C@@H]2O[C@H](C(=O)O)[C@@H](O)[C@H](O)[C@H]2O)C(C)C)C(C)C)c(O[C@@H]2O[C@H](C(=O)O)[C@@H](O)[C@H](O)[C@H]2O)c1)C(C)C [Compound 18] | 1.8 | 6.5 | 4.3 | 0.6 | 0.8 | 2.0 | 1.6 | 3.4 | 1.5 | 2.7 | 6.82 | 6.16 | 4.31 | 6.97 | 5.45 | 6.88 | 6.1 | 6.84 | 5.49
CC[C@@]1(O)C(=O)OCc2c1cc1n(c2=O)Cc2c-1nc1ccccc1c2CCN(C(=O)OCc1ccc(NC(=O)[C@H](C)NC(=O)[C@@H](NC(=O)CCOCCOCCOCCOCCNC(=O)CCC(=O)Nc2ccc3c(c2)cc(CN(C)NC)n3CCC(=O)NCCOCCOCCOCCOCCC(=O)N[C@H](C(=O)N[C@@H](C)C(=O)Nc2ccc(COC(=O)N(CCc3c4c(nc5ccccc35)-c3cc5c(c(=O)n3C4)COC(=O)[C@]5(O)CC)C(C)C)cc2O[C@@H]2O[C@H](C(=O)O)[C@@H](O)[C@H](O)[C@H]2O)C(C)C)C(C)C)c(O[C@@H]2O[C@H](C(=O)O)[C@@H](O)[C@H](O)[C@H]2O)c1)C(C)C [Compound 36] | – | 4.1 | 6.1 | – | 3.3 | – | – | 3.5 | 2.2 | 6.2 | – | 6.78 | 6.33 | – | 6.88 | – | 6.55 | 6.32 | 6.33
